Assay results as given in patent US20180147231A1, “METHOD FOR TREATMENT AND PROGNOSIS OF COLORECTAL CANCER” (Oxford University Innovation Limited, priority 2015, published 2018).

Columns and labels:
[1] = test system: T84 CRC cells (KRAS-mutant, IL22RA1 high); assay: Primary sphere forming assay, T84 cells; assay type: cell-based, human; settings: 10 ng/mL IL-22 pre-treatment 48 h, spheres cultured 6 days
Description: (A) Schematic representation of primary sphere forming assay workflow. Cells were pre-treated with 10 ng/mL IL-22 for 48 hours, filtered to single cells and 1000 cells/well were seeded into 96 well low-binding plates in serum-free media containing 1% methylcellulose, 20 ng/mL EGF, 20 ng/mL bFGF with and without 10 ng/mL IL-22. Four experimental replicates were seeded for each condition. Cultured spheres from (B) Colo205, T84 and SW480 cell lines for 6 days. (C) Bright field microscopy images (4×) of single wells 6 days after seeding (1 experiment representative of 4). (D) MTT assay to assess viability of spheres 6 days after seeding (n=3). (E) Bright field microscopy of T84 spheres (20×) 6 days after seeding. (F) Quantification of spheres after 6 days of culture using ImageJ. Data represent mean+/−SD of 3 independent experiments, each with 3 technical replicates per condition. *p<0.05, one-way ANOVA with Dunnett's post test for multiple comparisons.
Colo205, T84, and SW480 cells were pretreated for 48 h in 48 well plates with 10 ng/mL IL-22 (R&D Systems). Cells were filtered to single cells using […] filter and 1000 cells/well were seeded into 96 well low binding plates (Corning) in 1% methylcellulose in IMDM (R&D Systems), 20 ng/mL recombinant EGF (Sigma), 20 ng/mL recombinant basic FGF (Peprotech), lx insulin-transferrin selenite (ITS) (Sigma) in serum-free DMEM. […]

[2] = test system: T84 cells (KRAS-mutant, IL22RA1 high); assay: Chemotherapy killing assay (MTT), T84 cells; assay type: cell-based, human; settings: 48 h pre-treatment with 10 ng/mL IL-22, then 50 μM oxaliplatin or 5-FU for 48 h
Description: (A) MTT assay on Colo205, T84, and SW480 cells pre-treated or not pre-treated for 48 h with 10 ng/mL IL-22, then treated with 50 μM oxaliplatin or 5-FU for 48 h. MTT was added 2 h prior to end of 48 h incubation. Formazan particles were dissolved in DMSO and absorbance was measured at 540 nm. Raw absorbances are blank corrected, normalized to a no treatment or IL-22 only, and represented as a % reduction in viability compared to the no treatment or IL-22 only conditions. n=3 independent experiments with 3 experimental replicates, *p<0.05, ****p<0.0001, one-way ANOVA with Tukey's post test for multiple comparisons.
Colo205, T84, SW480, and DLD-1 cells were seeded at a density of 1×10^4 cells/well in 48 well plates. Cells were pre-treated for 48 h with 10 ng/mL IL-22, then subjected to 50 μM oxaliplatin (Sigma) or 5-fluorouracil (Sigma) or vehicle control (DMSO) for 48 h. 50 μg Methylthiazolyldiphenyl-tetrazolium bromide (MTT) (Sigma) was added to each well 2 h prior to the end of incubation. At the end of the 48 h incubation supernatants were aspirated and formazan particles were solubilized with DMSO and transferred to a fresh plate. Absorbance was measured at 540 nm on Spectrostar Nano plate reader (BMG Labtech).

[3] = test system: DLD-1 KRAS MUT cells (heterozygous KRAS G13D); assay: Phosflow analysis of intracellular signaling, DLD-1 KRAS MUT; assay type: cell-based; settings: 30 min 10 ng/mL recombinant human IL-22
Description: Therefore this isogenic pair differs only in KRAS mutation status and allows a clean system for comparison of KRAS-dependent IL-22 effects without inter-cell line mutational heterogeneity. (A) Representative FACS plots of IL-22RA1 expression and quantification of mean fluorescence intensity (WI) showing similar IL-22RA1 expression in the isogenic pair (4 experimental replicates). […] MTT was added 2 h prior to end of 48 h incubation. Formazan particles were dissolved in DMSO and absorbance was measured at 540 nm. Raw absorbances are blank corrected, normalized to a no treatment, and represented as a % viability compared to the no treatment condition. n=5 independent experiments with 3 experimental replicates. p values computed by non-parametric Mann-Whitney test comparing 5 FU alone to IL-22 pretreatment with 5 FU for each DLD-1 line.
Adherent Colo205, T84, SW480, and DLD-1 cells were dissociated using StemPro® Accutase® (Life Technologies), filtered through […] filters, and counted by Trypan Blue exclusion. 5×10^5 cells of each line were stained with 5 μL Human IL-22 R alpha 1 Phycoerythrin MAb (Clone 305405) (R&D Systems) or […] isotype rat anti-mouse IgG1 PE (BD Biosciences) and incubated for 30 minutes at room temperature. Cells were washed with PBS, 0.1% BSA, 2 mM EDTA and acquired on the BD LSRII. Analysis was performed using FlowJo (Tree Star) software. For analysis of intracellular signaling pathways by phosflow, DLD-1 isogenic cells were plated in 6 well plates (1.5 million cells/well) in serum free RPMI and allowed to adhere overnight. DLD-1 cells were then stimulated or not for 30 minutes with increasing doses of recombinant human IL-22 (0.001 ng/mL-100 ng/mL). Cells were dissociated with TrypLE, fixed for 10 min at 37° C. with BD Cytofix Fixation Buffer. Cells were then permeabilized in BD Phosflow Perm Buffer III for 30 min on ice. […]

B1: IL-22: recombinant human IL-22 (R&D Systems), IL-10 superfamily cytokine; human sequence SEQ ID NO: 5 (protein, listed as Homo sapiens)
chain: MAALQKSVSSFLMGTLATSCLLLLALLVQGGAAAPISSHCRLDKSNFQQPYITNRTFMLAKEASLADNNTDVRLIGEKLFHGVSMSERCYLMKQVLNFTLEEVLFPQSDRFQPYMQEVVPFLARLSNRLSTCHIEGDDLHIQRNVQKLKDTVKKLGESGEIKAIGELDLLFMSLRNACI
Clonogenic outgrowth (sphere formation) [1]: enhances clonogenic outgrowth | Protection against oxaliplatin and 5-fluorouracil mediated cell death [2]: protects against oxaliplatin and 5 fluorouracil mediated cell death | Phosphorylated ERK1/2 [3]: not IL-22 inducible | Phosphorylated S6 [3]: IL-22 inducible phosphorylated S6 | Phosphorylated STAT3 [3]: identical extent of phosphorylated STAT3
